Numbering of substitutions follows the chain as printed. Bridges are numbered along the chain shown (N, C = ends). Where no end group is shown, it is not given here. mT2a = not defined here
T1: equine IL-31 (Equine_IL31) (equine)
T1 construct: Production of the protein used as Biacore surface is not described; also called horse IL-31
T1 chain: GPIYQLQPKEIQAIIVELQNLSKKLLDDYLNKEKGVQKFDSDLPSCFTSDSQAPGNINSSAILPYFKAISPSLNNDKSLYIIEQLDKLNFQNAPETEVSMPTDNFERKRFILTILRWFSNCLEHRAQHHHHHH

T2: human IL-31 (human, UniProt Q6EBC2 24-164)
T2 construct: Production of the protein used as Biacore surface is not described
T2 sequence: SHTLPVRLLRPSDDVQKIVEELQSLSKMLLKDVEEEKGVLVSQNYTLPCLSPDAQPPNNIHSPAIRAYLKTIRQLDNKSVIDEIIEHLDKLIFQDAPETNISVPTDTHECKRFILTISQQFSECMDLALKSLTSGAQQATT

T3: canine IL-31 (Canine_IL31) (canine)
T3 chain: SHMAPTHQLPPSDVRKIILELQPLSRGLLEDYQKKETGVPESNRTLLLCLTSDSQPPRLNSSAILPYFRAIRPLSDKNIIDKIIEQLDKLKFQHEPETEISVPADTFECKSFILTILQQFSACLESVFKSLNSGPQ

T4: Peptide ZTS-564 (terminal cysteines constrained with the mT2b linker (CLIPS))
T4 peptide: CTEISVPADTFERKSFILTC

B1: ZIL94 (antibody, V domains shown)
VH: EVQLVDSGGDLVKPGGSLRLSCVASGFTFSTYFMSWVRQAPGRGLQWVALISSDGSGTYYADAVKGRFTISRDNAKNTLYLQMNSLRAEDTAMYYCAIFWRAFNDWGQGTLVTVSS
VL: QTVVIQEPSLSVSPGGTVTLTCGLNSGSVSTSNYPGWYQQTRGRTPRTIIYDTGSRPSGVPNRFSGSISGNKAALTITGAQPEDEADYYCSLYTDSDILVFGGGTHLTVLR
notes: Recombinant fully canine IgG (65_1 isotype); also called CAN-ZIL94
B2: ZIL69 (antibody, V domains shown)
VH: EVQLVESGGDLVKPAGSLRLSCVASGFTFSSYAMKWVRQAPGKGLQWVATINNDGTRTGYADAVRGRFTISKDNAKNTLYLQMDSLRADDTAVYYCTKGNAESGCTGDHCPPYWGQGTLVTVSS
VL: SSVLTQPPSVSVSLGQTATISCSGESLNKYYAQWFQQKAGQAPVLVIYKDTERPSGIPDRFSGSSAGNTHTLTISGARAEDEADYYCESAVSSETNVFGSGTQLTVLR
notes: Recombinant fully canine IgG (65_1 isotype); also called CAN-ZIL69
B3: ZIL171 (antibody, V domains shown)
VH: EVQLVESGGDLVKPAGSLRLSCVASGFTFRTYVMNWVRQAPGKGLQWVASINGGGSSPTYADAVRGRFTVSRDNAQNSLFLQMNSLRAEDTAIYFCVVSMVGPFDYWGHGTLVTVSS
VL: B2 VL with E25K, N28S, K29Y, A66S, E94D, N96I, S100G, Q103H
notes: Recombinant fully canine IgG (65_1 isotype); also called CAN-ZIL171
B4: ZIL159 (antibody, V domains shown)
VH: EVQLVESGGDLVKPAGSLRLSCVASGFTFSSYVMTWVRQAPGKGLQWVAGINSEGSRTAYADAVKGRFTISRDNAKNTLYLQIDSLRAEDTAIYYCATGDIVATGTSYWGQGTLVTVSS
VL: SNVLTQPPSVSVSLGQTATISCSGETLNRFYTQWFQQKAGQAPVLVIYKDTERPSGIPDRFSGSSSGNIHTLTISGARAEDEAAYYCKSAVSIDVGVFGGGTHLTVFR
notes: Recombinant fully canine IgG (65_1 isotype); also called CAN-ZIL159
B5: mouse anti IL-31 antibody 11E12 (antibody, V domains shown)
VH: QVQLQQSGAELVKPGASVKLSCKASGYTFKYYDINWVRQRPEQGLEWIGWIFPGDGGTKYNETFKGKATLTTDKSSSTAYMQLSRLTSEDSAVYFCARGGTSVIRDAMDYWGQGTSVTVSS
VL: DIVLTQSPASLAVSLGQRATISCRASESVDNYGISFMHWYQQKPGQPPKLLIYRASNLESGIPARFSGSGSRTDFTLTINPVETDDVATYYCQQSNKDPLTFGAGTKLELK
notes: Mouse monoclonal used for comparison; also called Mu-11E12; MU-11E12
B6: mouse anti IL-31 antibody 15H05 (antibody, V domains shown)
VH: QVQLQQSAAELARPGASVKMSCKTSGYTFTSYTIHWIKQRPGQGLEWIGNINPTSGYTENNQRFKDKTTLTVDRSSNTAYLQLHSLTSEDSAVYFCARWGFKYDGEWSFDVWGAGTTVTVSS
VL: DIQMNQSPSSLSASLGDTITVTCRASQGISIWLSWYQQKPGNIPKVLINKASNLHIGVPPRFSGSGSGTHFTLTITSLQPEDIATYYCLQSQTYPLTFGGGTKLEIN
notes: Mouse hybridoma monoclonal; also called Mu-15H05; MU-15H05
B7: ZTS-927 (antibody)
heavy: QVLLVQSGAEVRTPGASVKIFCKASGYSFTSYTIHWLRQAPAQGLEWMGNINPTSGYTENNQRFKDRLTLTADTSTNTAYMELSSLRSADTAMYYCARWGFKYDGEWSFDVWGAGTTVTVSSASTTAPSVFPLAPSCGTTSGATVALACLVLGYFPEPVTVSWNSGALTSGVHTFPAVLQASGLYSLSSMVTVPSSRWLSDTFTCNVAHPPSNTKVDKTVRKTDHPPGPKPCDCPKCPPPEMLGGPSIFIFPPKPKDTLSISRTPEVTCLVVDLGPDDSDVQITWFVDNTQVYTAKTSPREEQFNSTYRVVSVLPILHQDWLKGKEFKCKVNSKSLPSPIERTISKAKGQPHEPQVYVLPPAQEELSRNKVSVTCLIKSFHPPDIAVEWEITGQPEPENNYRTTPPQLDSDGTYFVYSKLSVDRSHWQRGNTYTCSVSHEALHSHHTQKSLTQSPGK
light: EIQMTQSPSSLSASPGDRVTITCRASQGISIWLSWYQQKPGNIPKVLINKASNLHIGVPSRFSGSGSGTDFTLTISSLEPEDAATYYCLQSQTYPLTFGGGTKLEIKRSDAQPSVFLFQPSLDELHTGSASIVCILNDFYPKEVNVKWKVDGVVQNKGIQESTTEQNSKDSTYSLSSTLTMSSTEYQSHEKFSCEVTHKSLASTLVKSFQRSECQRE
B8: ZTS-361 (antibody)
heavy: B7 heavy with M242A, L243A, G245A
light: B7 light
B9: ZIL154 (antibody, V domains shown)
VH: EVHLVESGGDLVKPWGSLRLSCVASGFTFSDRGMSWVRQSPGKGLQWVAYIRYDGSRTDYADAVEGRFTISRDNAKNTLYLQMNSLRAEDTAVYYCARWDGSSFDYWGQGTLVTVSS
VL: DIVVTQTPLSLSVSPGETASFSCKASQSLLHSDGNTYLDWFRQKPGQSPQRLIYKVSNRDPGVPDRFSGSGSGTDFTLRISGVEADDAGLYYCMQAIHFPLTFGAGTKVELKR
notes: Recombinant fully canine IgG (65_1 isotype); also called CAN-ZIL154
B10: Peptide ZTS-563 (peptide)
peptide: CAKVSMPADNFERKNFILTC
modifications: linker 1-20 via mT2a; reading uncertain
B11: Peptide ZTS-562 (peptide)
peptide: CEISVPADTFERKSFC
modifications: constrained through the terminal cysteines; linker only shown in FIG. 13A

Legend:
[1] = target: T1, equine IL-31 (Equine_IL31); test: Biacore, IL-31 surface, single antibody concentration
human IL-31 = target: T2, human IL-31; test: as above
Peptide ZTS-562 = target: B11; test: Biacore, peptide ZTS-562 immobilised on the surface
[2] = target: T3, canine IL-31 (Canine_IL31); test: cell-based or functional assay
Peptide ZTS-564 = target: T4, Peptide ZTS-564; test: Biacore, peptide ZTS-564 immobilised on the surface
Peptide ZTS-561 = target: T5, Peptide ZTS-561 (terminal cysteines constrained with the mT2a linker (CLIPS)); test: Biacore, peptide ZTS-561 immobilised on the surface
T5 construct: Unconjugated constrained peptide; also called canine IL-31 15H05 mimotope ZTS-561

Peptide ZTS-563 = target: B10; test: Biacore, peptide ZTS-563 immobilised on the surface
ZTS-361 = target: B8; test: cell-based or functional assay

Question: Does B1 bind [1]?
Answer: no binding

Question: Does B2 bind [1]?
Answer: no binding

Question: Does B3 bind [1]?
Answer: no binding

Question: Does B4 bind [1]?
Answer: no binding

Question: Does B5 bind (human IL-31)?
Answer: no binding

Question: Does B5 bind [1]?
Answer: no binding

Question: Does B6 bind (human IL-31)?
Answer: no binding

Question: Does B6 bind [1]?
Answer: binds

Question: With B7 as the binder, how does the Kd (Peptide ZTS-562) read?
Answer: 2.78 nM

Question: What about the “IC50, inhibition of canine IL-31-induced STAT3 phosphorylation, canine DH82 cells” value [2] of the same binder?
Answer: 23.2 µg/mL

Question: And the “IC50, inhibition of canine IL-31-induced STAT3 phosphorylation, feline FCWF4 cells” value [2]?
Answer: 39.6 µg/mL

Question: What about the Kd (Peptide ZTS-564) of the same binder?
Answer: 4.13 nM

Question: What about the Kd (Peptide ZTS-561) of the same binder?
Answer: 1.02 nM

Question: What about the Kd (Peptide ZTS-563) of the same binder?
Answer: 1.48 nM

Question: How did the “IC50, inhibition of canine IL-31-induced STAT3 phosphorylation, canine DH82 cells” value [2] turn out when B8 was run?
Answer: 23 µg/mL

Question: What about the “IC50, inhibition of canine IL-31-induced STAT3 phosphorylation, feline FCWF4 cells” value [2] of the same binder?
Answer: 38.8 µg/mL

Question: Which results are given for B9?
Answer: binding result (human IL-31): no binding; binding result [1]: no binding

Question: B10 was tested. Which “IC50 of peptide blocking mAb ZTS-361 inhibition of feline IL-31 mediated STAT3 phosphorylation in FCWF-4 cells, unconjugated” value (ZTS-361) did it give?
Answer: 1.74 µg/mL

Question: How did the “IC50 of peptide blocking mAb ZTS-361 inhibition of feline IL-31 mediated STAT3 phosphorylation in FCWF-4 cells, unconjugated” value (ZTS-361) turn out when B11 was run?
Answer: 1.05 µg/mL
